Source: US20180339041A1 (Kyowa Kirin, published 2018)
Positions count from the first letter of the chain named. Numbers in names are those of the source.

B1: hzKM5321 LV0HV0 antibody (antibody, V domains shown)
VH: QVHLVQSGSELKKPGASVKISCKASGYTFTNYGMNWVRQAPGQGLEWMGWINTNTGEPTYTEEFKGRFVFSLDTSVTTSYLQISTLKAEDTAVYFCARDEGWFVYWGQGTLVTVSS
VL: ETTLTQSPSSLSASVGDRVTITCITSTDIDDDMNWYQQKPGKAPKLLISEGNTLRPGVPSRFSGSGSGTDFTLTISSLQPEDFATYYCLQTDSVPLTFGQGTKVEIK
notes: Humanized; variant human IgG4 constant region (EU S228P, L235E, R409K), human kappa; also called B-02; LV0HV0
B2: hzKM5321 LV7bHV0 antibody (antibody, V domains shown)
VH: B1 VH
VL: B1 VL with L4V, A13V, G64S, L73F, L78T, T85D, V104L
notes: Humanized; variant human IgG4 constant region (EU S228P, L235E, R409K), human kappa; also called B-10; LV7bHV0
B3: hzKM5321 LV9HV7 antibody (antibody, V domains shown)
VH: B1 VH with V2I, S9P, R38K, E46K, S79A, V93T, V112I
VL: B1 VL with L4V, A13V, V15T, A43P, G64S, L73F, L78T, T85D, V104L
notes: Humanized; variant human IgG4 constant region (EU S228P, L235E, R409K), human kappa; also called B-21; LV9HV7
B4: hzKM5321 LV7bHV7 antibody (antibody, V domains shown)
VH: B1 VH with V2I, S9P, R38K, E46K, S79A, V93T, V112I
VL: B1 VL with L4V, A13V, G64S, L73F, L78T, T85D, V104L
notes: Humanized; variant human IgG4 constant region (EU S228P, L235E, R409K), human kappa; also called B-20; LV7bHV7
B5: hzKM5321 LV7aHV0 antibody (antibody, V domains shown)
VH: B1 VH
VL: B1 VL with A13V, V15T, A43P, G64S, L73F, L78T, T85D
notes: Humanized; variant human IgG4 constant region (EU S228P, L235E, R409K), human kappa; also called B-09; LV7aHV0
B6: hzKM5321 LV6HV2b antibody (antibody, V domains shown)
VH: B1 VH with S9P, V93T
VL: B1 VL with A13V, V15T, A43P, G64S, L78T, T85D
notes: Humanized; variant human IgG4 constant region (EU S228P, L235E, R409K), human kappa; also called B-24; LV6HV2b
B7: hzKM5321 LV6HV5 antibody (antibody, V domains shown)
VH: B1 VH with V2I, R38K, E46K, S79A, V112I
VL: B1 VL with A13V, V15T, A43P, G64S, L78T, T85D
notes: Humanized; variant human IgG4 constant region (EU S228P, L235E, R409K), human kappa; also called B-29; LV6HV5
B8: hzKM5321 LV6HV3b antibody (antibody, V domains shown)
VH: B1 VH with R38K, E46K, V93T
VL: B1 VL with A13V, V15T, A43P, G64S, L78T, T85D
notes: Humanized; variant human IgG4 constant region (EU S228P, L235E, R409K), human kappa; also called B-26; LV6HV3b
B9: hzKM5321 LV6HV3a antibody (antibody, V domains shown)
VH: B1 VH with S9P, E46K, V93T
VL: B1 VL with A13V, V15T, A43P, G64S, L78T, T85D
notes: Humanized; variant human IgG4 constant region (EU S228P, L235E, R409K), human kappa; also called B-25; LV6HV3a

Tests used:
[1] = molecular target: T1, C-terminally FLAG-tagged human Gas6 recombinant protein (hGas6-F) (human, UniProt Q14393 31-678, gamma-carboxylated glutamic acid residues in the Gla domain (producer cells co-express rat VKOR and human GGCX); positions not given); assay: SPR Biacore T100, captured antibody, Gas6 analyte, first test
T1 construct: also called human Gas6-F; human Gas6 protein
T1 sequence: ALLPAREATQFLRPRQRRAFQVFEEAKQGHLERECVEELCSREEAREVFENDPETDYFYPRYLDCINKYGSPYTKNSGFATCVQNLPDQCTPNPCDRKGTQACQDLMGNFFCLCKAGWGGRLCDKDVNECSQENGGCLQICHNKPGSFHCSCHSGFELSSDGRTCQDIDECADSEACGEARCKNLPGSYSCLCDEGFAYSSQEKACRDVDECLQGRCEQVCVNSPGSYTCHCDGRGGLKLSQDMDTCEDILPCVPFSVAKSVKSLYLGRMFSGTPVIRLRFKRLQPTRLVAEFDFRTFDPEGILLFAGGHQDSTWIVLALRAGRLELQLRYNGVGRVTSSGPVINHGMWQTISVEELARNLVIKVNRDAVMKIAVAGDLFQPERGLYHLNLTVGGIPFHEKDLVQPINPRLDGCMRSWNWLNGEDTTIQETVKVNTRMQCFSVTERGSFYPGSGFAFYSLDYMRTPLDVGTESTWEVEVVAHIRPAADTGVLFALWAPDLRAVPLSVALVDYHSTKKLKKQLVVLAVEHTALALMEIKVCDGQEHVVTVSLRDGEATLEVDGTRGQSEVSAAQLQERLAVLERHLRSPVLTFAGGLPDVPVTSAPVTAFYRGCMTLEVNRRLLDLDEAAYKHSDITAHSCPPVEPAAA
Method: (§1) An anti-human IgG antibody was immobilized on a CM5 sensor chip (manufactured by GE Healthcare Japan Corp.) using Human Antibody Capture Kit (manufactured by GE Healthcare Japan Corp.) according to the attached manual. Each test antibody adjusted to 1 μg/mL was added for 10 seconds at a flow rate of 10 μL/min to flow cells. […] The measurement was performed by the […] method. The obtained sensorgram was analyzed using Bia Evaluation Software (manufactured by GE Healthcare Japan Corp.), and the kinetic constant of each antibody was calculated.

[2] = molecular target: T1, C-terminally FLAG-tagged human Gas6 …; assay: as above; remark: listed apart in the source
Method: The measurement instrument used was Biacore® T100 (manufactured by GE Healthcare Japan Corp.).
as §1

[3] = molecular target: T1, C-terminally FLAG-tagged human Gas6 …; assay: competitive ELISA, inhibition of hGas6-F binding to immobilised hAxl-hFc
[4] = molecular target: T1, C-terminally FLAG-tagged human Gas6 …; assay: SPR Biacore T100, captured antibody, Gas6 analyte, retest
Method: as §1
In this retest, unlike the test mentioned above, the number of antibodies to be measured and variations in the concentration of the analyte were decreased, and the assay was conducted for a short time (within several hours), instead of sufficiently leaving standing the analyte added to the vial. […] This minimizes the adsorption of the analyte to the vial and permits more accurate calculation of ka and KD values than that in the test mentioned above.

[5] = molecular target: T1, C-terminally FLAG-tagged human Gas6 …; assay: ELISA, hGas6-F captured by anti-FLAG, anti-human IgG-HRP
Method: First, 2 μg/mL anti-FLAG antibody [Monoclonal ANTI-FLAG M2 antibody produced in mouse (manufactured by Sigma-Aldrich Co. LLC) diluted with PBS (manufactured by Nacalai Tesque, Inc.)] was dispensed at 50 μL/well to a 96-well plate for ELISA (manufactured by Nalge Nunc International), and the plate was left standing overnight at 4° C. for adsorption. After removal of the immobilization solution, 1% BSA-PBS (manufactured by Nacalai Tesque, Inc.) was added thereto at 300 μL/well, and the plate was left standing at room temperature for 1 hour for blocking and washed five times with Tween 20-PBS (manufactured by Wako Pure Chemical Industries Ltd.).
In order to reduce the backgrounds of measurement values, the diluted secondary antibody solution was mixed with 50 μg/mL of an anti-DNP mouse IgG1 antibody and incubated at room temperature for 1 hour for use.

Binder	Kd [1]	koff [1]	kon [1]	fold increase of KD against the KM5321 chimeric antibody [2]	fold increase of kd against the KM5321 chimeric antibody [2]	IC50 [3]	Kd [4]	koff [4]	kon [4]	EC50 [5]
B1	< 3.57 nM	0.000468 s⁻¹	> 131000 M⁻¹ s⁻¹	~3 fold	~3 fold					
B2	< 1.88 nM	0.000242 s⁻¹	> 129000 M⁻¹ s⁻¹			11.8 ng/mL	0.403 nM	0.000142 s⁻¹	353000 M⁻¹ s⁻¹	6.69 ng/mL
B3	< 3.33 nM	0.000352 s⁻¹	> 106000 M⁻¹ s⁻¹							
B4	< 3.07 nM	0.000329 s⁻¹	> 107000 M⁻¹ s⁻¹							
B5	< 1.41 nM	0.000188 s⁻¹	> 133000 M⁻¹ s⁻¹							
B6	< 2.33 nM	0.000239 s⁻¹	> 103000 M⁻¹ s⁻¹			12.7 ng/mL	0.484 nM	0.000154 s⁻¹	319000 M⁻¹ s⁻¹	5.95 ng/mL
B7	< 2.61 nM	0.000277 s⁻¹	> 106000 M⁻¹ s⁻¹							
B8	< 1.88 nM	0.0002 s⁻¹	> 106000 M⁻¹ s⁻¹							
B9	< 2.15 nM	0.000226 s⁻¹	> 105000 M⁻¹ s⁻¹							
